Source: ChEMBL document CHEMBL1145332, “Design of inhibitors of orotidine monophosphate decarboxylase using bioisosteric replacement and determination of inhibition kinetics” (J Med Chem, 2006)

Columns and labels:
[1] = substrate: O=C(O)c1cc(=O)[nH]c(=O)n1[C@@H]1O[C@H](COP(=O)(O)O)[C@@H](O)[C@H]1O; test: Affinity for Plasmodium falciparum ODCase at 25 degreeC by UV-based assay
[2] = substrate: O=C(O)c1cc(=O)[nH]c(=O)n1[C@@H]1O[C@H](COP(=O)(O)O)[C@@H](O)[C@H]1O; test: Affinity for Methanobacterium thermoautotrophicum ODCase at 55 degreeC by ITC method
[3] = substrate: O=C(O)c1cc(=O)[nH]c(=O)n1[C@@H]1O[C@H](COP(=O)(O)O)[C@@H](O)[C@H]1O; test: Affinity for Methanobacterium thermoautotrophicum ODCase at 25 degreeC by ITC method
[4] = substrate: O=C(O)c1cc(=O)[nH]c(=O)n1[C@@H]1O[C@H](COP(=O)(O)O)[C@@H](O)[C@H]1O; test: Affinity for Saccharomyces cerevisiae ODCase at 25 degreeC by UV-based assay

B1: Orotidine phosphate decarboxylase (Plasmodium falciparum), Q8T6J6 (protein)
chain: MGFKVKLEKRRNAINTCLCIGLDPDEKDIENFMKNEKENNYNNIKKNLKEKYINNVSIKKDILLKAPDNIIREEKSEEFFYFFNHFCFYIINETNKYALTFKMNFAFYIPYGSVGIDVLKNVFDYLYELNIPTILDMKINDIGNTVKNYRKFIFEYLKSDSCTVNIYMGTNMLKDICYDEEKNKYYSAFVLVKTTNPDSAIFQKNLSLDNKQAYVIMAQEALNMSSYLNLEQNNEFIGFVVGANSYDEMNYIRTYFPNCYILSPGIGAQNGDLHKTLTNGYHKSYEKILINIGRAITKNPYPQKAAQMYYDQINAILKQNMES
- Km [1]: 13 µM

B2: Orotidine 5'-phosphate decarboxylase (Methanobacterium thermoautotrophicum), O26232 (protein)
chain: MRSRRVDVMDVMNRLILAMDLMNRDDALRVTGEVREYIDTVKIGYPLVLSEGMDIIAEFRKRFGCRIIADFKVADIPETNEKICRATFKAGADAIIVHGFRGADSVRACLNVAEEMGREVFLLTEMSHPGAEMFIQGAADEIARMGVDLGVKNYVGPSTRPERLSRLREIIGQDSFLISPGVGAQGGDPGETLRFADAIIVGRSIYLADNPAAAAAGIIESIKDLLNP
- Km [2]: 5 µM
- Km [3]: 2 µM

B3: Orotidine 5'-phosphate decarboxylase (Saccharomyces cerevisiae S288c), P03962 (protein)
chain: MSKATYKERAATHPSPVAAKLFNIMHEKQTNLCASLDVRTTKELLELVEALGPKICLLKTHVDILTDFSMEGTVKPLKALSAKYNFLLFEDRKFADIGNTVKLQYSAGVYRIAEWADITNAHGVVGPGIVSGLKQAAEEVTKEPRGLLMLAELSCKGSLATGEYTKGTVDIAKSDKDFVIGFIAQRDMGGRDEGYDWLIMTPGVGLDDKGDALGQQYRTVDDVVSTGSDIIIVGRGLFAKGRDAKVEGERYRKAGWEAYLRRCGQQN
- Km [4]: 0.7 µM
